From the supplement of paper PMC10065799, “High-throughput profiling of sequence recognition by tyrosine kinases and SH2 domains using bacterial peptide display” (eLife, 2023)

Assays:
Grb2 SH2 = Grb2 SH2 (UniProt P62993); assay: SH2 binding enrichment of the phosphorylated peptide, bacterial display (enrichment ratio); higher = better substrate or ligand; peptides without Tyr show the background
SHP2-C SH2 = assay: as above
c-Src SH2 = assay: as above
Jak2 = Jak2 (UniProt O60674); assay: phosphorylation enrichment, bacterial display (enrichment ratio); higher = better substrate or ligand; peptides without Tyr show the background
FGFR1 = FGFR1 (UniProt P11362); assay: as above
c-Abl (mouse) = assay: as above
Hck = Hck (UniProt P08631); assay: as above
Fyn = Fyn (UniProt P06241); assay: as above
AncSZ = assay: as above
Fer (mouse) = assay: as above
Fes = Fes (UniProt P07332); assay: as above
MERTK = MERTK (UniProt Q12866); assay: as above
FGFR3 = FGFR3 (UniProt P22607); assay: as above
EPHB2 = EPHB2 (UniProt P29323); assay: as above
c-Src = assay: as above
EPHB1 = EPHB1 (UniProt P54762); assay: as above
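Wherever SH2 binding enrichment of the phosphorylated peptide, bacterial display is given: peptide library displayed on the E. coli surface as eCPX fusions, selected cells deep-sequenced, score is each peptide's frequency after selection divided by its frequency in the input.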
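Wherever phosphorylation enrichment, bacterial display is given: 11-residue human phosphosite peptides and single-mutation variants displayed on the E. coli surface, counted by deep sequencing, each peptide's frequency after selection divided by its frequency in the unselected input library; frequency after pTyr selection over input frequency; kinase dosed for 20-30% of maximal phosphorylation in three min.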

Chain of Fes (P07332 whole entry, looked up): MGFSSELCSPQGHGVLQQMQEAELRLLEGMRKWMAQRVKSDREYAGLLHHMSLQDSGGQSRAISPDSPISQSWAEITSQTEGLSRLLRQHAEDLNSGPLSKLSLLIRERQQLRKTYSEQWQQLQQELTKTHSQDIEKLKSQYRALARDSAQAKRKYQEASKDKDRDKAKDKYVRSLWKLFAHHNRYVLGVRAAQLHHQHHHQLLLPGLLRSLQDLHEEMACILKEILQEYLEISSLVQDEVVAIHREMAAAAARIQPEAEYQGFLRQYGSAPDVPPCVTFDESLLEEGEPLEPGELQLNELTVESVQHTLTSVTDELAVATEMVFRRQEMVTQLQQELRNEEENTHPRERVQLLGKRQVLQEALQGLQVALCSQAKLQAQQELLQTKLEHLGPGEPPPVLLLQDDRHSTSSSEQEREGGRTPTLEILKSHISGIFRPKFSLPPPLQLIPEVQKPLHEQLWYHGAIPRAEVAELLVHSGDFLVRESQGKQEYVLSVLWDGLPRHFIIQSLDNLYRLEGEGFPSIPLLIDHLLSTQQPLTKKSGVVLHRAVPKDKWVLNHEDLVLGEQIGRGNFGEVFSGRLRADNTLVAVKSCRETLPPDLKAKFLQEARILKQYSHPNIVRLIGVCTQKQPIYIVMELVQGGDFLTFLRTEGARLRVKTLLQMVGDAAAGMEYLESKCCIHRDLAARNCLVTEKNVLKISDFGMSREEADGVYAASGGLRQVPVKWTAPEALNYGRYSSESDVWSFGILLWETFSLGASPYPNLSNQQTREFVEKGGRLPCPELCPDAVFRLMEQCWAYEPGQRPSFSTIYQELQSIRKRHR
Chain of MERTK (Q12866 whole entry, looked up): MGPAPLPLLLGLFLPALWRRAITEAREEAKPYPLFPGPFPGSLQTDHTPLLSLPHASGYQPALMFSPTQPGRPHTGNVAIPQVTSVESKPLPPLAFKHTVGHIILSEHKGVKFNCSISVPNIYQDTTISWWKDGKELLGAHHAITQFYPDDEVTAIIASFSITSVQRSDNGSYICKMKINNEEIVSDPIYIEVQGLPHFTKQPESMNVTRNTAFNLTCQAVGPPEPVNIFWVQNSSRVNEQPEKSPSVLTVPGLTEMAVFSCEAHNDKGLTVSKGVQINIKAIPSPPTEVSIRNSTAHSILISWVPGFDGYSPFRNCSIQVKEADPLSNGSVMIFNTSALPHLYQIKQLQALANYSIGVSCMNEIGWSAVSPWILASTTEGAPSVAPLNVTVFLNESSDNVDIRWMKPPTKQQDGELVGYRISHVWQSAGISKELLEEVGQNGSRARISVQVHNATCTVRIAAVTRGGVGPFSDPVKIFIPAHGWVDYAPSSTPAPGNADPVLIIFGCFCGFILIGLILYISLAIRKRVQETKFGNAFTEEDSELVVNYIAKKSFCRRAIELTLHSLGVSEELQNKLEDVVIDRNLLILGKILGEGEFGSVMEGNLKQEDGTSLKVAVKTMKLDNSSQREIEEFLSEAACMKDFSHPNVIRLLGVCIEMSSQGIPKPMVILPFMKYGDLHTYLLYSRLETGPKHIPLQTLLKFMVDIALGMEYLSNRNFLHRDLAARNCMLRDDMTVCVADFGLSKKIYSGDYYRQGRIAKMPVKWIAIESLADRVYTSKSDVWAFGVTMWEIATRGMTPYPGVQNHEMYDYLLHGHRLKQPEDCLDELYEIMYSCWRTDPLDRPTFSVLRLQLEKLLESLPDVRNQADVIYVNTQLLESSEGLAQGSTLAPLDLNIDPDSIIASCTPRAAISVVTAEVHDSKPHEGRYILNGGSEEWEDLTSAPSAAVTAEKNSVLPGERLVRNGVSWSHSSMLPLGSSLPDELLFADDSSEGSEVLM
Chain of FGFR3 (P22607 whole entry, looked up): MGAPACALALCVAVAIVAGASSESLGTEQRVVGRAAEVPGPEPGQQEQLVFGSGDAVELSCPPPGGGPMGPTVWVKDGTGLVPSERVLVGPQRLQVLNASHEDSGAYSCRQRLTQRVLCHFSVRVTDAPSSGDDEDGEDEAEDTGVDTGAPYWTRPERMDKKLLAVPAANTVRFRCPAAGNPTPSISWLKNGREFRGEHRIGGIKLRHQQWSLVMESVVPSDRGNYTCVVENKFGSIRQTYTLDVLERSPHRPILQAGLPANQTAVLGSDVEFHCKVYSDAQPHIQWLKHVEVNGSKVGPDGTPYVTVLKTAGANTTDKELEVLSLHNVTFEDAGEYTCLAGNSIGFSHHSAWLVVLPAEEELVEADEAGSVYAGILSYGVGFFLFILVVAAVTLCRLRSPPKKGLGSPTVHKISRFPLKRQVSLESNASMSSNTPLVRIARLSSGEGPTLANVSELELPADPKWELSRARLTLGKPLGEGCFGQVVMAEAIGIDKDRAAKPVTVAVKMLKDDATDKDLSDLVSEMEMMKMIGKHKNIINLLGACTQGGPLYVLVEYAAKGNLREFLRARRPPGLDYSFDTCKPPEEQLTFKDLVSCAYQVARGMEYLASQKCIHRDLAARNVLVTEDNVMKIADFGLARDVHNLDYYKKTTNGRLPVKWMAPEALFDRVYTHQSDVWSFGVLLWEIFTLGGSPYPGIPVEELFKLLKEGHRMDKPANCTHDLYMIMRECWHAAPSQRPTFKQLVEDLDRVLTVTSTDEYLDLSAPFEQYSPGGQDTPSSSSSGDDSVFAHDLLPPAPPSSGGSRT
Chain of Jak2 (O60674 whole entry, looked up): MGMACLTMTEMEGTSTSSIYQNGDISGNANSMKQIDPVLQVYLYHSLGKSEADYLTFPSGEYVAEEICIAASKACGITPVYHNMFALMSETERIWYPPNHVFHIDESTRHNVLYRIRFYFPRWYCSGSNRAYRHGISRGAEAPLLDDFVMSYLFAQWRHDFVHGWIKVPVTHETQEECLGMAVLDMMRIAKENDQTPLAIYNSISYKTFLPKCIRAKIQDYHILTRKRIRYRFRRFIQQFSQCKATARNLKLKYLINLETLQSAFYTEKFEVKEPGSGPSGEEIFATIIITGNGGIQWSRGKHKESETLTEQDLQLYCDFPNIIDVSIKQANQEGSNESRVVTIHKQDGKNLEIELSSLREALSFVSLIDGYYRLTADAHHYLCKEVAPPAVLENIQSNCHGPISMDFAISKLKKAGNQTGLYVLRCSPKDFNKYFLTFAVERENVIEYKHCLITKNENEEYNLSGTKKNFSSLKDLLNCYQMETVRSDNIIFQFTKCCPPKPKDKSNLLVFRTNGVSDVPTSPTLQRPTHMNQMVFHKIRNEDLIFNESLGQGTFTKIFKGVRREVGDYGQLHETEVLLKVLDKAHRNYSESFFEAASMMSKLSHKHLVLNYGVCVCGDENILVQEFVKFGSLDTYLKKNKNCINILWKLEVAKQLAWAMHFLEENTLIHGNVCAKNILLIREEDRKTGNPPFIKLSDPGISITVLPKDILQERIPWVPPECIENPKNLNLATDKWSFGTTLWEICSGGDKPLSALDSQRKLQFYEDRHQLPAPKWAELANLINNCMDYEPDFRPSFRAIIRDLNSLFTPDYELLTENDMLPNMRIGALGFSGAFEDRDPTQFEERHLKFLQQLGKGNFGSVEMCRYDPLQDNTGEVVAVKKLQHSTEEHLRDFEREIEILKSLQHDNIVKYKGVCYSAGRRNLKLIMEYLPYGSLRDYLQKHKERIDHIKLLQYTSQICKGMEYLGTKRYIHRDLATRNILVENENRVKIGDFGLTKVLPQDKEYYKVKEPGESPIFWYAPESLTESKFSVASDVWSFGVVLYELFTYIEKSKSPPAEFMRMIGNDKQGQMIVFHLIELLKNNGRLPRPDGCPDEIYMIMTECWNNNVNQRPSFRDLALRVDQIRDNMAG
Chain of Hck (P08631 whole entry, looked up): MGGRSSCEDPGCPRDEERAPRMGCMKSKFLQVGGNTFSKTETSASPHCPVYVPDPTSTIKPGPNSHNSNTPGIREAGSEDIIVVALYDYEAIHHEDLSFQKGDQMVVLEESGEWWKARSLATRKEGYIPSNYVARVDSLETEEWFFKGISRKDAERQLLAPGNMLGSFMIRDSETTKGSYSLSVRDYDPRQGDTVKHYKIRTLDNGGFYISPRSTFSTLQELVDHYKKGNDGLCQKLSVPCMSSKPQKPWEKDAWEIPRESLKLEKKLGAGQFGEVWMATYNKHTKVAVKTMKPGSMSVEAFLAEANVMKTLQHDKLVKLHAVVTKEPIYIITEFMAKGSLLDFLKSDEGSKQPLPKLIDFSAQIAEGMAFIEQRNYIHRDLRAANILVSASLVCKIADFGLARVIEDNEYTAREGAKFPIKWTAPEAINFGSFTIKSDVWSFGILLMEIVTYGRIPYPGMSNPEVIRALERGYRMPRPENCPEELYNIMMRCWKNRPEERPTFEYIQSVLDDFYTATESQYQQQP
Chain of Fyn (P06241 whole entry, looked up): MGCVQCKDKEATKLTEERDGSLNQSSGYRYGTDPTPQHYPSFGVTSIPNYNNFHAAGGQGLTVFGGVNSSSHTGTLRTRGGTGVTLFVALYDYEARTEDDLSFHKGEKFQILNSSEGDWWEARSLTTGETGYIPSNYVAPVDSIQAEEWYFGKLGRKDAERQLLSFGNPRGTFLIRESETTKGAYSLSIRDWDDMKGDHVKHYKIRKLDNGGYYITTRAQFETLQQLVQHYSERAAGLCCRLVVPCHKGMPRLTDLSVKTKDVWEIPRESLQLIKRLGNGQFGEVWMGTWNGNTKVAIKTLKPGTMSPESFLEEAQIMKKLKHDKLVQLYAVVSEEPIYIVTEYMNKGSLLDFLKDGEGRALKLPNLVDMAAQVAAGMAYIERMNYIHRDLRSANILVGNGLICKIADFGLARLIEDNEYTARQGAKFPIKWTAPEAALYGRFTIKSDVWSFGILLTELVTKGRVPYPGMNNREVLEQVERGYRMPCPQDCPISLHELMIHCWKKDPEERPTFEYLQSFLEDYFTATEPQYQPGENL

Row | SH2 binding enrichment (Grb2 SH2) | SH2 binding enrichment (SHP2-C SH2) | SH2 binding enrichment (c-Src SH2) | Sequence | phosphorylation enrichment (Jak2) | phosphorylation enrichment (FGFR1) | phosphorylation enrichment (c-Abl (mouse)) | phosphorylation enrichment (Hck) | phosphorylation enrichment (Fyn) | phosphorylation enrichment (AncSZ) | phosphorylation enrichment (Fer (mouse)) | phosphorylation enrichment (Fes) | phosphorylation enrichment (MERTK) | phosphorylation enrichment (FGFR3) | phosphorylation enrichment (EPHB2) | phosphorylation enrichment (c-Src) | phosphorylation enrichment (EPHB1)
1 | 0.982 | 0.821 | 0.506 | FPPTHYIRRMP [SLC4A11_Y820_V824M_YF] | 0.597 | 0.498 | 0.718 | 0.601 | 0.561 | 0.919 | 0.445 | 0.981 | 0.524 | 0.502 | 0.661 | 0.543 | 0.528
2 | 0.68 | 0.569 | 0.459 | KEIHAYRKLLE [LMNA_Y376_M371K] | 0.59 | 0.429 | 0.489 | 0.476 | 0.344 | 0.63 | 0.468 | 0.76 | 0.414 | 0.487 | 0.481 | 0.506 | 0.397
3 | 1.02 | 1.25 | 0.876 | HLEKKYVRRDS [CSF1R_Y708] | 6.5 | 2.42 | 2.1 | 1.23 | 1.64 | 2.92 | 1.67 | 4.2 | 6.59 | 0.997 | 2.23 | 4.16 | 1.61
4 | 1.25 | 2.41 | 4.14 | CTTIHYNYMCN [TP53_Y234] | 0.661 | 0.539 | 0.471 | 0.482 | 0.453 | 0.853 | 0.557 | 0.903 | 0.485 | 0.692 | 0.696 | 0.469 | 0.762
5 | 0.706 | 0.701 | 0.484 | TAGFSYEKWEI [TEC_Y360] | 1 | 0.533 | 0.694 | 0.536 | 0.503 | 1.52 | 1.46 | 1.21 | 0.549 | 0.72 | 0.577 | 0.463 | 0.472
6 | 1.05 | 0.832 | 0.78 | SCRENYSDSEE [LEMD3_Y258] | 1 | 0.547 | 0.792 | 0.502 | 0.52 | 1.07 | 0.434 | 1.14 | 0.539 | 0.694 | 0.619 | 0.475 | 0.607
7 | 0.689 | 0.889 | 0.447 | VQNIVYRTASI [CYP39A1_Y102] | 0.581 | 0.414 | 0.467 | 0.36 | 0.382 | 0.706 | 0.34 | 0.619 | 0.334 | 0.442 | 0.396 | 0.356 | 0.335
8 | 0.711 | 0.636 | 0.588 | GQDLFYEDEDL [PACS1_Y303] | 1.43 | 0.626 | 0.839 | 0.737 | 0.688 | 1.28 | 1.79 | 1.39 | 0.746 | 1.24 | 0.628 | 0.598 | 0.922
9 | 1.38 | 1.73 | 0.893 | TFVVLYDAELT [ERCC4_Y581_R576T_YF] | 1.49 | 0.696 | 0.979 | 0.568 | 0.712 | 1.31 | 0.669 | 1.61 | 0.724 | 0.92 | 1.03 | 0.596 | 1.18
10 | 0.843 | 1.18 | 0.517 | TFWKKYRTFWK [CCDC70_Y125] | 0.934 | 0.403 | 0.723 | 0.371 | 0.46 | 0.702 | 0.409 | 0.8 | 0.446 | 0.555 | 0.308 | 0.664 | 0.472
11 | 0.869 | 0.802 | 0.773 | SSAKTYSRMRL [NBEAL2_Y1835_E1833K] | 0.52 | 0.34 | 0.542 | 0.453 | 0.406 | 0.433 | 0.379 | 0.552 | 0.4 | 0.394 | 0.366 | 0.427 | 0.354
12 | 0.796 | 0.733 | 0.445 | LSTPEYGPKLK [TBC1D14_Y46_A43T] | 0.569 | 0.465 | 0.57 | 0.417 | 0.527 | 0.673 | 0.461 | 0.574 | 0.532 | 0.506 | 0.496 | 0.494 | 0.47
13 | 0.972 | 0.588 | 0.497 | ETAENYLGHTA [HSPA9_Y181] | 0.622 | 0.486 | 0.559 | 0.47 | 0.442 | 0.858 | 0.443 | 0.865 | 0.503 | 0.523 | 0.652 | 0.414 | 0.43
14 | 1.05 | 1.01 | 1.06 | VTRLRYPVCFG [ITK_Y336] | 0.825 | 0.467 | 0.756 | 0.555 | 0.453 | 0.815 | 0.487 | 1.07 | 0.471 | 0.877 | 0.543 | 0.467 | 0.528
15 | 0.56 | 1.52 | 0.973 | PQDVTYAQLHS [LILRB4_Y412] | 0.786 | 0.351 | 0.815 | 6.52 | 4.37 | 0.959 | 0.685 | 1.22 | 0.645 | 0.75 | 0.999 | 2.8 | 1.22
16 | 0.897 | 0.921 | 18.8 | EKQARYEIVEE [CDH5_Y223_V227E] | 1.09 | 0.506 | 0.749 | 0.667 | 0.542 | 1.2 | 0.56 | 1.24 | 0.644 | 0.798 | 0.565 | 0.521 | 0.582
17 | 0.931 | 0.908 | 1.91 | EAEPYYCSLRD [NPHS1_Y1139_R1140C] | 1.33 | 1.34 | 1.62 | 2.94 | 3.37 | 1.78 | 1.85 | 1.43 | 2.28 | 1.31 | 1.21 | 4.11 | 1.17

Row | SH2 binding enrichment (Grb2 SH2) | SH2 binding enrichment (SHP2-C SH2) | SH2 binding enrichment (c-Src SH2) | Sequence | phosphorylation enrichment (Jak2) | phosphorylation enrichment (FGFR1) | phosphorylation enrichment (c-Abl (mouse)) | phosphorylation enrichment (Hck) | phosphorylation enrichment (Fyn) | phosphorylation enrichment (AncSZ) | phosphorylation enrichment (Fer (mouse)) | phosphorylation enrichment (Fes) | phosphorylation enrichment (MERTK) | phosphorylation enrichment (FGFR3) | phosphorylation enrichment (EPHB2) | phosphorylation enrichment (c-Src) | phosphorylation enrichment (EPHB1)
18 | 0.765 | 0.54 | 0.443 | REHTVYGEPRK [MAGEA4_Y240] | 0.674 | 0.664 | 1.03 | 0.903 | 0.869 | 0.716 | 0.52 | 0.851 | 0.492 | 0.684 | 0.687 | 0.599 | 0.588
19 | 0.989 | 0.8 | 5.58 | RYMELYDLNRD [BBS2_Y648] | 1.4 | 1.04 | 0.993 | 1.89 | 1.67 | 1.41 | 1.14 | 1.41 | 1.32 | 1.24 | 1.05 | 4.49 | 1.52
20 | 0.685 | 0.657 | 0.336 | TESALYGCTVV [KIAA1804_Y724_L729V] | 1.17 | 0.517 | 0.888 | 4.37 | 5.73 | 1.18 | 5 | 1.43 | 1.83 | 0.802 | 0.833 | 4.43 | 0.783
21 | 0.737 | 0.543 | 0.483 | AGTILYHAHLG [ASS1_Y291_D296G] | 0.816 | 0.517 | 0.727 | 0.61 | 0.564 | 0.819 | 0.495 | 1.07 | 0.863 | 0.625 | 0.633 | 0.549 | 0.534
22 | 1.12 | 0.708 | 0.512 | LAVPLYKNGVK [CPS1_Y1069] | 0.933 | 0.904 | 0.777 | 0.574 | 0.777 | 1.23 | 1.04 | 0.856 | 1.42 | 0.836 | 1.67 | 0.416 | 1.09
23 | 0.745 | 0.529 | 0.419 | WISNRSLDFSS [PRPH2_Y184_Y184S] | 0.713 | 0.788 | 0.578 | 0.427 | 0.401 | 0.646 | 0.583 | 0.765 | 0.408 | 0.583 | 0.469 | 0.321 | 0.452
24 | 0.872 | 0.591 | 0.457 | ALEKTYNTFRS [B4GALNT2_Y538_YF] | 0.73 | 0.433 | 0.503 | 0.704 | 0.777 | 0.573 | 0.422 | 0.509 | 0.382 | 0.456 | 0.406 | 1.78 | 0.351
25 | 0.791 | 0.866 | 0.399 | LERFIYNPEEF [HLA-DPB1_Y59_R61P_YF] | 1.32 | 0.934 | 1.09 | 1.33 | 1.75 | 2.02 | 0.927 | 1.75 | 0.618 | 1.71 | 0.708 | 2.4 | 0.738
26 | 0.819 | 0.612 | 0.448 | ALEKTYNTYRS [B4GALNT2_Y538] | 0.497 | 0.391 | 0.433 | 0.438 | 0.517 | 0.568 | 0.35 | 0.658 | 0.312 | 0.439 | 0.349 | 0.925 | 0.336
27 | 0.974 | 1.6 | 0.528 | LGSVVYAQSKE [KCNQ2_Y226_H228Q] | 1.19 | 0.852 | 1.24 | 1.29 | 1.08 | 1.61 | 0.99 | 1.31 | 1.1 | 1.39 | 0.97 | 1.08 | 1.86
28 | 1.24 | 0.623 | 1.1 | LRVKMYNFLRS [ADGRG7_Y760] | 1.47 | 1.71 | 1.25 | 1.59 | 1.75 | 2.63 | 1.08 | 3.22 | 1.19 | 2.58 | 2.15 | 0.868 | 1.41
29 | 0.976 | 0.635 | 0.516 | FPMLNYKDIRK [CFAP221_Y798] | 0.469 | 0.346 | 0.398 | 0.441 | 0.493 | 0.49 | 0.362 | 0.628 | 0.431 | 0.408 | 0.384 | 0.416 | 0.292
30 | 1.23 | 1.12 | 0.611 | RRNTPYSQTMK [TET2_Y819_S817T] | 0.708 | 0.273 | 0.422 | 0.367 | 0.428 | 0.55 | 0.512 | 0.626 | 0.503 | 0.431 | 0.365 | 0.44 | 0.252
31 | 0.824 | 0.688 | 0.512 | DKATEYSQFMR [MAX_Y70_I71S_YF] | 0.524 | 0.449 | 0.519 | 0.631 | 0.733 | 0.84 | 0.392 | 0.683 | 0.423 | 0.397 | 0.541 | 0.873 | 0.39
32 | 0.931 | 0.702 | 7.06 | DIRAQYDELAR [KRT18_Y256] | 1.04 | 0.576 | 0.766 | 0.761 | 0.58 | 1.02 | 0.503 | 1.01 | 0.47 | 0.592 | 0.483 | 0.474 | 0.452
33 | 0.777 | 0.645 | 0.766 | GTYEDYVEGLR [MYL6_Y89] | 0.885 | 0.617 | 0.748 | 0.726 | 1.14 | 1.31 | 0.579 | 1.22 | 0.513 | 0.743 | 1.19 | 1.43 | 1.31
